# Results taken from the supplement of paper PMC9170038.
# Tested on: MS2 coat protein
# Assay: apparent KD of MS2 coat protein; higher = weaker reporter binding
# Settings: Eterna round: R107
# Protocol: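 RNA-MaP round R107: designed RNA switches with theophylline, tryptophan, arginine or FMN aptamers are transcribed on-chip within common flanks. They are titrated with SNAP-549-labelled MS2 coat protein in RNA-MaP buffer (100 mM Tris pH 7.5, 80 mM KCl, 4 mM MgCl2), without ligand or with the indicated ligand. Median apparent KD per design.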
# [1] = input ligand: theophylline 20 uM
# [2] = input ligand: theophylline 2 mM
# [3] = input ligand: tryptophan 2.4 mM
Sequence,apparent KD of MS2 coat protein (input ligand: arginine 13.2 mM) [nM],apparent KD of MS2 coat protein [1] [nM],apparent KD of MS2 coat protein [2] [nM],apparent KD of MS2 coat protein (input ligand: none) [nM],apparent KD of MS2 coat protein [3] [nM]
UAUCGUCAGACGGCCGCCACUAGAACAUGAGGAUCACCCAUGUAGGCGGCCGAUUCCUCAUUAACUAGGACCGGGUCUGACGAAU [(Trp1)-(Ms2)-(T)'-(M)'-(Trp2)_Design11],11.5,15.9,9.76,–,–
GUGCCGCAUUCACAUGAGGAUCACCCAUGUCGAGGACCGGUACGGCCGCCACUCGACGUGCUUACAGGUCCUUUAAGGCCCAAUA [Usislaan],79,200,221,–,–
GAGAGUGUGUGCGAAAGCACAGAUCUGGAAGGAGCGUAGAAAGAUACAGGUAGGUCGCCGGGACAUGAGGAUCACCCAUGUGUAU [ArgiA-ms2@63],38.9,52.6,35.8,37.7,34.2
CCUCGUGCAACAUGAGGAUCACCCAUGUACCGAGGACCGGUACGGCCGCCACUCGAAAACGAGUACCAUUAGCGAAAGCUGAUGG [Trp A SS mod1],11.9,16.4,14.2,13.1,14.1
AGCAUCUAGUCGGCCGCCACUCUUAUUACAUGAGGAUCACCCAUGUUUAAUUCAUGGUUAUAUUUGAGGACCGGGACAUUUGCAU [JR_ExcTryptoB_Sub007],39.7,70.2,74.9,–,–
UGAGAGGGCGGAAGGAGCGACAUGAGGAUCACCCAUGUCUCCCGUUAUGGGAGUUCUUUAGGUCAGGUAGGUCGCCGGCCUCUCA [#1 Exclusion - Arginine B Attempt #10 (Inspired by Omei)],94.3,104,127,122,111
AACAUGAGGAUCACCCAUGUCAUGUUGGAUACCAGCCAAUAAUAAGGCCCUUGGCAGCUAUAGAUCGAUGAUCCAUGAGGAUCAC [Exclusion Theophylline A],27.6,49.4,–,–,33.1
UGGCAAGAGGGAAGGAGCGUCAGCUGAGUCACAUGAGGAUCACCCAUGUAGCACAUAGUGUGACAGGUAGGUCGCCCUCUGCCGU [SS-ArgB10],6.72,10.1,10.3,8.82,9.62
UGGGAAGGAGGAAGGAGCGCCAUAAGGGUGACAGUCUGGGUACAUGAGGAUCACCCAUGUAGGCAGGUAGGUCGCCUCGCUCUCA [XArg-B15],26.2,12.8,14.3,9.53,12.5
GCACAUGAGGAUCACCCAUGUAUUACUGAAGGAGCGAGACAGAACUCAGGUAGGUCGCAGACGGCGGAAUCGCCGACGACAUGGG [Exclusion Arginine A GF23],20.3,66.5,40.7,36.7,27.7
UACUGUCUAACGGCCGCCACUCAGUCUCGGUUGAUUAUCUUAAGUGACAUGAGGAUCACCCAUGUGAGGACCGGGUUGUGCAUAA [theeternabot_exclusion_MS2_Trp_B_40],60.4,91.3,96.7,–,–
AACCAUCUCGGCGAUACCAGUGCCUACGAGUACAUGAGGAUCACCCAUGUAGGUGACCGACACCCUUGGCAGCGCGAUUGAGUCA [theeternabot_sameState_MS2_Theo_B_45],70.9,184,–,–,129
UCCAUCGGCGGAAGCCGAUGGUUUACAGAAGGAGCGUAGGAAACUACAGGUAGGUCGCUGGACAUGAGGAUCACCCAUGUGUUUU [SSAA #12],24.4,22.4,30,26.5,20.8
AUUGUGAACCUGAUCGUAUAAUGUAGCGAUACCAGUAUAAUACAUUACCCUUGGCAGCGCGACACAUGAGGAUCACCCAUGUAAG [theeternabot_exclusion_MS2_Theo_A_10],19.6,26.9,–,–,23
UGUAUGUGAUUUGAUACCAGACCAGCUGGUGGUACAUGAGGAUCACCCAUGUAGGUUUGGGUCCCUUGGCAGCAAAUCGCAUACU [SSTheo B #24],54.6,64.5,–,–,44
CCUUAACAUGAGGAUCACCCAUGUCUGGAUACCAGAUACAGAUAAAUCCCUUGGCAGCCAAAAUAUGAAAGAAAUAAAAUAAGAA [theeternabot_sameState_MS2_Theo_A_29],27.5,66.3,–,–,50.2
AGUUUAGACACGGCCGCCACUCGUGACAGAUUUCGCAGUGGUCAACAUGAGGAUCACCCAUGUCUGAGGACCGGGUGUUGAGUUU [XTryp B #7],45.2,48.7,53.4,–,–
AAUAACAUGAGGAUCACCCAUGUAAAAGAUACCAGAGUGAUGAUCCUCCCUUGGCAGCUUAAUAACGCUAUUGAUUACAAUAGCG [Mat - Same State Theophlline A - Mod of Eli - D6],33.5,98.7,–,–,37.2
UACAUGAGGAUCACCCAUGUAUGAAUAGAUACCAGCGAAAAUAAGCGCCCUUGGCAGCUAGUGAAUAAAGGGUGGGUAAAAUAAU [Exclusion Theophyline A GF 2],8.3,13.6,–,–,9.41
ACAUGAGGAUCACCCAUGUUCAUGCGGGAAGGAGCGUGCGGAAGCACAGGUAGGUCGCCCUCAAUAUCUAACGUUACGUUCAUGA [#26 Same State - Arginine A],13.7,18.4,14.4,14.3,15.5
ACUAGCGCACAUGAUACCAGCGACAUGAGGAUCACCCAUGUACGGCGUGUAUCGAAAGGUUGCCCUUGGCAGCAUGAUAGCGCUG [Cebiri],12.6,26.1,–,–,14.5
UUUAUUAUUGACUCGUUAUUGUUUUUGGAUCGAGGACCGGUACGGCCGCCACUCGUGAUAUACAUGAGGAUCACCCAUGUUAGCA [JR_Nu_SSTryptoA_Sub020],19.3,22,17.2,–,–
UACAUGAGGAUCACCCAUGUAUGAAUGGAUACCAGAUAAAAUAAGGUCCCUUGGCAGCUAGUGAAUCGAGGGUGGGUAUCAUGUU [#14 Exclusion-TheophyllineA],10.9,13.7,–,–,9.89
AAUAAUAGGUGAUCUUAAGUCGUACCGUAACGAGGACCGGUACGGCCGCCACUCGAACAUGAGGAUCACCCAUGUAUGUAUGAUA [whbob_SS_trypto A_f5],44.7,242,300,168,80.7
GCUUGGGUGGCACAGCACUGGCAGUGCGAUACCAGCACGGUAACGUGCCCUUGGCAGCGCACAUGAGGAUCACCCAUGUGGUGCG [#1 Exclusion - Theophylline A Attempt #26 (HarryS)],18.8,66.9,275,24.4,26
GGCCCUGCGAGCGCUCGCAGGGCCGCGGAUACCAGCGAGGUCCAUCGCCCUUGGCAGCCGAACAUGAGGAUCACCCAUGUCGGUC [#1 Same State - Theophylline A Attempt #11 (HarryS)],11.4,18.7,28.1,11.6,10.7
